Source: US20030077679

Key:
[1] = target: T1, human EID-1 (SEQ ID NO:4) expressed in E. coli as an N-terminal HIS6 fusion
T1 chain: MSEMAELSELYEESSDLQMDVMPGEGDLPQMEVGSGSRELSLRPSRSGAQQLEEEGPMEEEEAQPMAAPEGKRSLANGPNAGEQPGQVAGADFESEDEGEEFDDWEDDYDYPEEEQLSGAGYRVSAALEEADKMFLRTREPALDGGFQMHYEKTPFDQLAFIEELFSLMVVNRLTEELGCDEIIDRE

[2] = target: T2, human EID-1 with an N-terminal V5-HIS6 tag (in p423CDN)
T2 chain: T1 chain

B1: recombinant hDYRK3 (SEQ ID NO: 2) as used in Example 4 (protein)
chain: MGGTARGPGRKDAGPPGAGLPPQQRRLGDGVDTFMMIDETKCPPCSNVLCNPSEPPPPRRLNMTTEQFTGDHTQHFLDGGEMKVEQLFQEFGNRKSNTIQSDGISDSEKCSPTVSQGKSSDCLNTVKSNSSSKAPKVVPLTPEQALKQYKHHLTAYEKLEIINYPEIYFVGPNAKKRHGVIGGPNNGGYDDADGAYIHVPRDHLAYRYEVLKIIGKGSFGQVARVYDHKLRQYVALKMVRNEKRFHRQAAEEIRILEHLKKQDKTGSMNVIHMLESFTFRNHVCMAFELLSIDLYELIKKNKFQGFSVQLVRKFAQSILQSLDALHKNKIIHCDLKPENILLKHHGRSSTKVIDFGSSCFEYQKLYTYIQSRFYRAPEIILGSRYSTPIDIWSFGCILAELLTGQPLFPGEDEGDQLACMMELLGMPPPKLLEQSKRAKYFINSKGIPRYCSVTTQADGRVVLVGGRSRRGKKRGPPGSKDWGTALKGCDDYLFIEFLKRCLHWDPSARLTPAQALRHPWISKSVPRPLTTIDKVSGKRVVNPASAFQGLGSKLPPVVGIANKLKANLMSETNGSIPLCSVLPKLIS
[1]
  in vitro kinase assay with 33P-ATP, then LC-ES MS/MS of the Asp-N digest: there was a radioactive band that migrated at the same position as the EID-1 protein following electrophoresis

B2: human DYRK2 (SEQ ID NO:6) with an N-terminal HIS6-tag (protein)
chain: MNDHLHVGSHAHGQIQVQQLFEDNSNKRTVLTTQPNGLTTVGKTGLPVVPERQLDSIHRRQGSSTSLKSMEGMGKVKATPMTPEQAMKQYMQKLTAFEHHEIFSYPEIYFLGLNAKKRQGMTGGPNNGGYDDDQGSYVQVPHDHVAYRYEVLKVIGKGSFGQVVKAYDHKVHQHVALKMVRNEKRFHRQAAEEIRILEHLRKQDKDNTMNVIHMLENFTFRNHICMTFELLSMNLYELIKKNKFQGFSLPLVRKFAHSILQCLDALHKNRIIHCDLKPENILLKQQGRSGIKVIDFGSSCYEHQRVYTYIQSRFYRAPEVILGARYGMPIDMWSLGCILAELLTGYPLLPGEDEGDQLACMIELLGMPSQKLLDASKRAKNFVSSKGYPRYCTVTTLSDGSVVLNGGRSRRGKLRGPPESREWGNALKGCDDPLFLDFLKQCLEWDPAVRMTPGQALRHPWLRRRLPKPPTGEKTSVKRITESTGAITSISKLPPPSSSASKLRTNLAQMTDANGNIQQRTVLPKLVS
[2]
  in vitro kinase assay with gamma-33P-ATP, radioactive band on Phosphorimager: There is a radioactive band that migrates at the same position as the EID-1 protein in the western blot while this band is absent in the vector alone lane

B3: human DYRK3 catalytic domain (amino acids 142-526 of SEQ ID NO:2) with an N-terminal GST-tag and C-terminal HIS6-tag (protein)
chain: PEQALKQYKHHLTAYEKLEIINYPEIYFVGPNAKKRHGVIGGPNNGGYDDADGAYIHVPRDHLAYRYEVLKIIGKGSFGQVARVYDHKLRQYVALKMVRNEKRFHRQAAEEIRILEHLKKQDKTGSMNVIHMLESFTFRNHVCMAFELLSIDLYELIKKNKFQGFSVQLVRKFAQSILQSLDALHKNKIIHCDLKPENILLKHHGRSSTKVIDFGSSCFEYQKLYTYIQSRFYRAPEIILGSRYSTPIDIWSFGCILAELLTGQPLFPGEDEGDQLACMMELLGMPPPKLLEQSKRAKYFINSKGIPRYCSVTTQADGRVVLVGGRSRRGKKRGPPGSKDWGTALKGCDDYLFIEFLKRCLHWDPSARLTPAQALRHPWISKSVP
[2]
  in vitro kinase assay with gamma-33P-ATP, radioactive band on Phosphorimager: There is a radioactive band that migrates at the same position as the EID-1 protein in the western blot while this band is absent in the vector alone lane
